Results taken from patent US12491259B2, “Anti-variable MUC1* antibodies and uses thereof” (Minerva Biotechnologies Corporation, priority 2022, dated 2025).

B1: MNC2-Deruxtecan (conjugate)
VH: EVQLVESGGGLVKPGGSLRLSCAASGFTFSGYAMSWVRQAPGKGLEWVSTISSGGTYIYYPDSVKGRFTISRDNAKNSLYLQMNSLRAEDTAVYYCARLGGDNYYEYFDVWGKGTTVTVSS
VL: DIVLTQSPASLAVSPGQRATITCRASKSVSTSGYSYMHWYQQKPGQPPKLLIYLASNLESGVPARFSGSGSGTDFTLTINPVEANDTANYYCQHSRELPFTFGGGTKVEIKRT
B2: MN20A10-MMAF (conjugate)
VH: QVQLVESGGGLVKPGGSLRLSCAASGFTFSTYAMSWIRQAPGKGLEWVASIGRAGSTYYSDSVKGRFTISRDNAKNSLYLQMNSLRAEDTAVYYCARGPIYNDYDEFAYWGQGTLVTVSS
VL: EIVLTQSPATLSLSPGERATLSCKSSQSVLYSSNQKNYLAWYQQKPGQAPRLLIYWASTRESGIPARFSGSGSGTDFTLTISSLEPEDFAVYYCHQYLSSLTFGGGTKVEIKR

Key:
[1] = system: T47D-MUC1* breast cancer cells; assay: xCELLigence real-time killing assay (impedance); assay type: cell-based, human; details: for ADC concentration at which essentially all (near total) tumor cells were killed: readout 120 hours post ADC addition
Description: In this assay, impedance is measured in real-time. When the adherent cancer cells are killed and come off of the electrode surface, impedance (insulation) decreases. […] Either MNC2-MMAE, DAR 4.1, MN20A10-MMAE, DAR 5.8, MNC2-MMAF, DAR 3.7, MN20A10-MMAF, DAR 3.8, MNC2-Deruxtecan, DAR 7.2, or MN20A10-Deruxtecan, DAR 4.6, was then added to the cancer cells. […] Taxol and Triton are added as the positive killing control. […] Taxol and Triton are added as the positive killing control.
In this assay, impedance is measured in real-time. When the adherent cancer cells are killed and come off of the electrode surface, impedance (insulation) decreases. […] Either MNC2-Exatecan, DAR 8.2, MNC2-Deruxtecan, DAR 4.0, MNC2-MMAE, DAR 4.1, or free Exatecan at 50 μM, was then added to the cancer cells.
To assess real-time killing of target cancer cells including breast cancer cells (T47D), non-small cell lung cancer cells (NCI-H1975) and pancreatic cancer cells (HP AF II) assays were performed on an xCELLigence RTCA MP Instrument (Agilent). Target Cancer cells were seeded onto a multi-electrode well plate at a density of 5000 cells/well (100 μL of a 50,000 cells/mL stock) and incubated for 24 hr in a 37° C./5% CO2 incubator. mAb MNC2 ADCs or mAb MN20A10-ADCs were prepared as a 2× solution in corresponding growth media and 100 μL of each concentration was added to target cells. As a positive control (100% cell killing) cells were treated with either 1% triton or 1 μM Taxol instead of ADC. After 40-120 hours incubation in a 37° C./5% CO2 incubator cell killing was assessed. In this assay, impedance is measured in real-time. When the adherent cancer cells are killed and come off the electrode surface, impedance (insulation) decreases.
MNC2-ADCs and MN20A10-ADCs were also assayed for their ability to kill both low and high MUC1* expressing cells by monitoring killing in real-time using an xCELLigence instrument. In the xCelligence system, target cancer cells, which are adherent, are plated onto electrode array 96-well plates. Adherent cells insulate the electrode and increase the impedance. The number of adherent cancer cells is directly proportional to impedance. […] Therefore, increasing impedance reflects the growth of the cancer cells and decreasing impedance reflects the killing of the cancer cells.

[2] = system: T47D-wt breast cancer tumors; assay: Breast cancer xenograft, IVIS bioluminescence; assay type: in vivo, NOD/SCID/GAMMA (NSG) mice; details: from Day 6, 10 mg/kg increased to 20 mg/kg, DAR 4.2
Description: (§1) FIGS. 57A-57F show bioluminescence photographs of female NOD/SCID/GAMMA (NSG) mice, implanted with 90-day estrogen pellets and then implanted on the right flank with 1M human breast cancer cells that were either T47D wild-type cells that express low to medium levels of MUC1* or T47D-MUC1* cells that had been engineered to express more MUC1*. Day 7 post tumor implantation, the animals were injected with MNC2-MMAE, DAR 3.9, at 5 mg/kg, but was increased to 10 mg/kg for the Day 14 and Day 20 injections.
(§2) FIGS. 58A-58F show bioluminescence photographs of female NOD/SCID/GAMMA (NSG) mice, implanted with 90-day estrogen pellets and then implanted on the right flank with 1M human breast cancer cells that were either T47D wild-type cells that express low to medium levels of MUC1* or T47D-MUC1* cells that had been engineered to express more MUC1*. Day 7 post tumor implantation, the animals were injected with MN20A10-MMAE, DAR 3.0, at 5 mg/kg, but was increased to 10 mg/kg for the Day 14 and Day 20 injections.
(§3) FIGS. 63A-63H show bioluminescence photographs of female NOD/SCID/GAMMA (NSG) mice, implanted with 90-day estrogen pellets and then implanted on the right flank with 1M human breast cancer cells that were either T47D wild-type cells that express low to medium levels of MUC1* or T47D-MUC1* cells that had been engineered to express more MUC1*. […]

[3] = system: T47D-MUC1* breast cancer tumors; assay: Breast cancer xenograft, IVIS bioluminescence; assay type: in vivo, NOD/SCID/GAMMA (NSG) mice; details: from Day 6, 10 mg/kg, DAR 4.2
Description: as §1, §2, §3

Row | Molecule | concentration as low as which cancer cells are potently killed ([1]; readout 0 to 120 hours, MNC2-Exatecan DAR 8.2, MNC2-Deruxtecan DAR 4.0 (FIG. 55)) | ADC concentration at which essentially all (near total) tumor cells were killed [1] | tumor burden (bioluminescence) [2] | tumor burden (bioluminescence) [3] | ADC concentration at which essentially all the tumor cells are killed ([1]; readout 40 hours post ADC addition)
1 | B1 | as low as 6.2 nM and even as low as 2.1 nM | 6 nM | greatly reduced compared to the controls | essentially eliminated by Day 26 | –
2 | B2 | – | 19 nM | – | – | 56 nM
